Measured values as given in paper doi:10.1101/2025.09.05.674518 (bioRxiv, 2025).

T1: M527D MXA (Homo sapiens, UniProt P20591)
T1 chain: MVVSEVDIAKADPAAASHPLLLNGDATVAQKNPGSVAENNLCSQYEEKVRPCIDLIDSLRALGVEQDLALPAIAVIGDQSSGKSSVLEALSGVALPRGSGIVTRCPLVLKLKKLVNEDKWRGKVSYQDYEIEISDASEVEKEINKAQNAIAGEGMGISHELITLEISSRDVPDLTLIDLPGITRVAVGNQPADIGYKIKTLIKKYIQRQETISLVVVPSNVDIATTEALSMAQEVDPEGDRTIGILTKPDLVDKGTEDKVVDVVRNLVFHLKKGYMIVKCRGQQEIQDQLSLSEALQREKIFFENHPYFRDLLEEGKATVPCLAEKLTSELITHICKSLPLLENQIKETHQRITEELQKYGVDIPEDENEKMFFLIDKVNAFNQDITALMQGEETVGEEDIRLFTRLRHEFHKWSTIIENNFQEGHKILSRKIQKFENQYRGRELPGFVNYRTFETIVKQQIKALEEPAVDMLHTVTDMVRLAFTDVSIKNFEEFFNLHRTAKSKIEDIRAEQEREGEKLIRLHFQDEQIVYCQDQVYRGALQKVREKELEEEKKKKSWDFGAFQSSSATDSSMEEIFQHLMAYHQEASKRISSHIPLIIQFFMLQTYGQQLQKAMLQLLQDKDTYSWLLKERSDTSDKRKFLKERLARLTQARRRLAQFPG


Key:
[1] = target: recombinant wild-type human MXA (Homo sapiens, UniProt P20591); test: ELISA
[2] = target: wild-type human MXA (Myxovirus resistance protein A), MAPPIT bait or prey (Homo sapiens, UniProt P20591)
M527D MXA = target: T1, M527D MXA

| Binder | binding result [1] | binding result [2] | binding result (M527D MXA) |
| --- | --- | --- | --- |
| VHH7, His6-tagged, purified from Pichia pastoris (VHH) VHH: QVQLQESGGGLVQAGDSLRLSCANSGRTRSAMGWFRQAPGKEREFVAAITWSGYGTYYADSVKGRFTISRDNAKNALYLRMNSLKPDDTAVYYCAARRNQYYSYSSASADYDYWGQGTQVTVSS | binds | – | – |
| VHH5, His6-tagged, purified from Pichia pastoris (VHH) VHH: QVQLQESGGGLVQAGDSLILSCAASGRTFSSSAMGWFRQAPGKEREFVAAITYSGISTEYADSVKGRFTISRDNPKSTLYLRMNSLKAEDTAVYYCAARRNGYYSRSHYSTDYEYWGRGTQVTVSS | binds | – | – |
| VHH88 (VHH) QVQLQESGGGLVQAGDSLTLSCARSGRIFNSVPMGWFRQAPGKEREIVAAISGNGVNTYYADSVKGRFAISRDSAKNTYLQMSSLKPEDTAVYYCAARVTPWDTRYYLDDYQYWGQGTQVTVSS | – | binds | binds |
| VHH97 (VHH) QVQLQESGGGLVQAGGSLRLSCAKSGRIFSSVPMGWFRQAPGKEREIVAAISGNGENTYYADSVKGRFTISRDNAKNTYLQMSSLKPEDTAVYYCAARVTPWDSRYYLDDYHYWGQGTQVTVSS | – | binds | binds |
| VHH93 (VHH) QVQLQESGGGLVQAGDSLRLSCVVSGRFLSGYAVGWFRQAPGNERDFVAAFTWIGGQTSYADSVKGRFTVSRDNAKNTLYLQMNNLKPEDTAVYYCAAKVAIVPPTTARGYDYWGQGTQVTVSS | – | binds | binds |
